The target of the experiment is actin filament (F-actin) polymerized from G-actin purified from rabbit skeletal muscle (rabbit, UniProt P68135 1-377). In words: co-sedimentation.

B1: full-length His6-b-nexilin (natural protein)
chain: MNDVSQKAEILLSSSKPVPKSYVPKLGKGDVKDKFEAMQRAREERNQRRSRDEKQRRKEQYIREREWNRRKQEIKDMLASDEEEEPSKVEKAYVPKLTGTVKGKFDEMEKHRQEEQRKRTEEERKRRIEQDLLEKRKMQRELAKRAEQEGDDSLLITVVPAKSYRAAANRKDPEDLDREHRNGRVSQEEEKTRHEEECRALKEAKCLSLVMDDETEAKKESRFPGKLKSTFEELERQRQENRKKQAEEEARRRLEEERRAFEEARRNMVNEEDESQDTETVFKEYRPGKLRLSFEEIERQRREEEKRKAEEEARRRMEEEKKAFAEARRSMVLDDDSPEIYKAVSQESLTPGKLEINFEQLLRQKMEEERRRTEEERRQKLEMEKQEFEQLRQEMGKEEEENESFGLSREYEELIKLKRSGSIQAKNLKSKFEKIGQLSEKEVQKKIEEERAKRRAIDLEIKEREAENFHEDDDVDVKPAKKSESPFTHKVNMKARFEQMAKARQEEEQRRIEEQKLLRMQFEQKEIDAALQKKREDDEEEEGSIVNGSTTEDEEQTRSGAPWFKKPLRNTSVVDSEPVRFTVKVTGEPKPEVTWWFEGELLQDGEDYQYIERGETYCLYLPETFPEDGGEYMCKAVNSKGSAASTCILTIEMDDY
On to B1, for which the “stoichiometry N” value was ~9 actin molecules per His6-b-nexilin molecule.

B2: full-length His6-s-nexilin (natural protein)
chain: MNDVSQKAEIKDMLASDEEEEPSKVEKAYVPKLTGTVKGKFDEMEKHRQEEQRKRTEEERKRRIEQDLLEKRKMQRELAKRAEQIEDINNTGTESASEEGDDSLLITVVPAKSYRAAANRKDPEDLDREHRNGRVSQEEEKTRHEEECRALKEAKCLSLVMDDETEAKKESRFPGKLKSTFEELERQRQENRKKQAEEEARRRLEEERRAFEEARRNMVNEEDESQDTETVFKEYRPGKLRLSFEEIERQRREEEKRKAEEEARRRMEEEKKAFAEARRSMVLDDDSPEIYKAVSQESLTPGKLEINFEQLLRQKMEEERRRTEEERRQKLEMEKQEFEQLRQEMGKEEEENESFGLSREYEELIKLKRSGSIQAKNLKSKFEKIGQLSEKEVQKKIEEERAKRRAIDLEIKEREAENFHEDDDVDVKPAKKSESPFTHKVNMKARFEQMAKARQEEEQRRIEEQKLLRMQFEQKEIDAALQKKREDDEEEEGSIVNGSTTEDEEQTRSGAPWFKKPLRNTSVVDSEPVRFTVKVTGEPKPEVTWWFEGELLQDGEDYQYIERGETYCLYLPETFPEDGGEYMCKAVNSKGSAASTCILTIEMDDY
As for B2, the “stoichiometry N” value is ~10 actin molecules per His6-s-nexilin molecule.

These data come from publication PMC2133087 (The Journal of Cell Biology, 1998).
